Reference: patent publication US20250340902A1, “GENE THERAPY FOR BVES-RELATED DISORDERS” (OHIO STATE INNOVATION FOUNDATION, priority 2022, published 2025)

Key:
[1] = molecular target: Transcription elongation factor A protein 3 (Mus musculus) (UniProt P23881); assay: anti-HA co-IP from muscle, MS; CTRL 3
[2] = molecular target: Cytoplasmic dynein 1 heavy chain 1 (Mus musculus) (UniProt Q9JHU4); assay: anti-HA co-IP from muscle, MS; CTRL 3
[3] = molecular target: Perilipin-4 (Mus musculus) (UniProt O88492); assay: anti-HA co-IP from muscle, MS; CTRL 3
Nidogen-2 (Mus musculus) = Nidogen-2 (Mus musculus) (UniProt O88322); assay: anti-HA co-IP from muscle, MS; CTRL 3
[4] = molecular target: 3-ketoacyl-CoA thiolase, mitochondrial (Mus musculus) (UniProt Q8BWT1); assay: anti-HA co-IP from muscle, MS; CTRL 3
Sequence of 3-ketoacyl-CoA thiolase, mitochondrial (Mus musculus) (Q8BWT1 whole entry): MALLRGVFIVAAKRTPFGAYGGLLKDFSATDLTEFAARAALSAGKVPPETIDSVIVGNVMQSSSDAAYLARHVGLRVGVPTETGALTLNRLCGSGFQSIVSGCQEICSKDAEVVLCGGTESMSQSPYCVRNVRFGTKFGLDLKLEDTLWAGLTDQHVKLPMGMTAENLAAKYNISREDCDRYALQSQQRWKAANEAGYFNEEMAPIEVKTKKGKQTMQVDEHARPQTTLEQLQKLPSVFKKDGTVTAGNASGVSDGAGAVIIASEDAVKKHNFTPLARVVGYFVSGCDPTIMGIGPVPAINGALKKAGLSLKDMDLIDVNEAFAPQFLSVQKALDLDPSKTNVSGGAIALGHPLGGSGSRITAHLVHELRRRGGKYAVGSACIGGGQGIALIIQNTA

[5] = molecular target: Myosin light chain kinase 2, skeletal/cardiac muscle (Mus musculus) (UniProt Q8VCR8); assay: anti-HA co-IP from muscle, MS; CTRL 3
Sequence of Myosin light chain kinase 2, skeletal/cardiac muscle (Mus musculus) (Q8VCR8 whole entry): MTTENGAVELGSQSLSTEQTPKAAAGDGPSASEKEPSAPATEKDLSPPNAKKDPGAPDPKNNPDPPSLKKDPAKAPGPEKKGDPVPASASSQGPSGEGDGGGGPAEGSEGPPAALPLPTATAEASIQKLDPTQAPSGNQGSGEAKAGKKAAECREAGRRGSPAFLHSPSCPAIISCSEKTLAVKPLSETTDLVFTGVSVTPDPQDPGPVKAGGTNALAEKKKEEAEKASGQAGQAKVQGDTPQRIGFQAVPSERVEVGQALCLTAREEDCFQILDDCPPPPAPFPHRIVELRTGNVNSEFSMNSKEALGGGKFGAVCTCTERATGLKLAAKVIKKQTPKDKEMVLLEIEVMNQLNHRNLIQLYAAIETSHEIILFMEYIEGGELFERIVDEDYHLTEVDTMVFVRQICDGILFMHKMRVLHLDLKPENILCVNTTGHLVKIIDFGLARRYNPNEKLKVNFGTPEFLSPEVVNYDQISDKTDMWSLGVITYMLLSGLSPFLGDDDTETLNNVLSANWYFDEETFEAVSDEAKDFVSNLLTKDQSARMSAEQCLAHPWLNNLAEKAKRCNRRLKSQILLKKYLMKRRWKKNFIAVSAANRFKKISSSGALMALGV

[6] = molecular target: Dystrophin (Mus musculus) (UniProt P11531); assay: anti-HA co-IP from muscle, MS; CTRL 6
[7] = molecular target: Sodium/potassium-transporting ATPase subunit alpha-2 (Mus musculus) (UniProt Q6PIE5); assay: anti-HA co-IP from muscle, MS; CTRL 6
[8] = molecular target: RUN and FYVE domain-containing protein 1 (Mus musculus) (UniProt Q8BIJ7); assay: anti-HA co-IP from muscle, MS; CTRL 0
[9] = molecular target: Tetraspanin-8 (Mus musculus) (UniProt Q8R3G9); assay: anti-HA co-IP from muscle, MS; CTRL 0
[10] = molecular target: Barrier-to-autointegration factor (Mus musculus) (UniProt O54962); assay: anti-HA co-IP from muscle, MS; CTRL 0
Sequence of Barrier-to-autointegration factor (Mus musculus) (O54962 whole entry): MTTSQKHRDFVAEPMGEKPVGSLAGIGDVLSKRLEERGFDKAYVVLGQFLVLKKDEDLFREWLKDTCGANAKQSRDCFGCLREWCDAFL

[11] = molecular target: 26S proteasome non-ATPase regulatory subunit 7 (Mus musculus) (UniProt P26516); assay: anti-HA co-IP from muscle, MS; CTRL 0
Sequence of 26S proteasome non-ATPase regulatory subunit 7 (Mus musculus) (P26516 whole entry): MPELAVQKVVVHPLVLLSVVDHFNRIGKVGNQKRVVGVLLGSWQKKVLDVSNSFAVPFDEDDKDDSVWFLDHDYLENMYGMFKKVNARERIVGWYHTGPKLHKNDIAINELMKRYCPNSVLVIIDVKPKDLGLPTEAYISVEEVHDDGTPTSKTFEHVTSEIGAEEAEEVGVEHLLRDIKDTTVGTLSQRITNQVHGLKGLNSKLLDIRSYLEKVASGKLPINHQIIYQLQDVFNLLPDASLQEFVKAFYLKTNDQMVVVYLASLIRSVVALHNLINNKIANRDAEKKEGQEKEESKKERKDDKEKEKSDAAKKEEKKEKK

[12] = molecular target: Heterogeneous nuclear ribonucleoprotein L (Mus musculus) (UniProt Q8R081); assay: anti-HA co-IP from muscle, MS; CTRL 0
[13] = molecular target: Mannose-binding protein C (Mus musculus) (UniProt P41317); assay: anti-HA co-IP from muscle, MS; CTRL 0
[14] = molecular target: C-1-tetrahydrofolate synthase, cytoplasmic (Mus musculus) (UniProt Q922D8); assay: anti-HA co-IP from muscle, MS; CTRL 0
[15] = molecular target: Nuclear mitotic apparatus protein 1 (Mus musculus) (UniProt E9Q7G0); assay: anti-HA co-IP from muscle, MS; CTRL 0
[16] = molecular target: Chloride channel protein 1 (Mus musculus) (UniProt Q64347); assay: anti-HA co-IP from muscle, MS; CTRL 0
[17] = molecular target: Methylcrotonoyl-CoA carboxylase subunit alpha, mitochondrial (Mus musculus) (UniProt Q99MR8); assay: anti-HA co-IP from muscle, MS; CTRL 0
[18] = molecular target: Collagen alpha-1(XV) chain (Mus musculus) (UniProt O35206); assay: anti-HA co-IP from muscle, MS; CTRL 0
[19] = molecular target: Band 3 anion transport protein (Mus musculus) (UniProt P04919); assay: anti-HA co-IP from muscle, MS; CTRL 0
Sequence of Band 3 anion transport protein (Mus musculus) (P04919 whole entry): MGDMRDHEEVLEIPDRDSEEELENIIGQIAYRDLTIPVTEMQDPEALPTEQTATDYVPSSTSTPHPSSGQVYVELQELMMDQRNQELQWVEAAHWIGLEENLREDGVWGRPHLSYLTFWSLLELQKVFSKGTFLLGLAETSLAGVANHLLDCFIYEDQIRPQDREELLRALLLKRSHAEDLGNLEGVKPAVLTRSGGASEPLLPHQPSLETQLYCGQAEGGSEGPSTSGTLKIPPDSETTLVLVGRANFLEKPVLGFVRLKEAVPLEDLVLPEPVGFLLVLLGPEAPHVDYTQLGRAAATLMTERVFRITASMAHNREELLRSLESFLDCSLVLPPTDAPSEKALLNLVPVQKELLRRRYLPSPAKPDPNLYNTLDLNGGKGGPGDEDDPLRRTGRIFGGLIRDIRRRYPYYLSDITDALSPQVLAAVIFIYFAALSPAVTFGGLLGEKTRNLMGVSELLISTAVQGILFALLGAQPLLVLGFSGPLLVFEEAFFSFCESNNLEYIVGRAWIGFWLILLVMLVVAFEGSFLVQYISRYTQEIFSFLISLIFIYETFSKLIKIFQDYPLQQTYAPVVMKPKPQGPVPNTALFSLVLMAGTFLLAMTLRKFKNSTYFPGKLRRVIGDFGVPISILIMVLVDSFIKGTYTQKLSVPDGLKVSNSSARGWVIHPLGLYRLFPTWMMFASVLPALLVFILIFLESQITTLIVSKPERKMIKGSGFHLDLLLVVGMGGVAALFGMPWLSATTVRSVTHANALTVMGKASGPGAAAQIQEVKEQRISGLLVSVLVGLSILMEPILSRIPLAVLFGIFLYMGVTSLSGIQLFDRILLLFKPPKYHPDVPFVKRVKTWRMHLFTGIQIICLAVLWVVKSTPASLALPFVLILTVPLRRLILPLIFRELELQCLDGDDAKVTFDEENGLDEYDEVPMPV

[20] = molecular target: RNA methyltransferase 10 homolog C (Mus musculus) (UniProt Q3UFY8); assay: anti-HA co-IP from muscle, MS; CTRL 0
[21] = molecular target: Beta-sarcoglycan (Mus musculus) (UniProt P82349); assay: anti-HA co-IP from muscle, MS; CTRL 0
[22] = molecular target: Transmembrane protein 43 (Mus musculus) (UniProt Q9DBS1); assay: anti-HA co-IP from muscle, MS; CTRL 0
[23] = molecular target: Phosphorylase b kinase regulatory subunit beta (Mus musculus) (UniProt Q7TSH2); assay: anti-HA co-IP from muscle, MS; CTRL 4
Sequence of Phosphorylase b kinase regulatory subunit beta (Mus musculus) (Q7TSH2 whole entry, canonical isoform): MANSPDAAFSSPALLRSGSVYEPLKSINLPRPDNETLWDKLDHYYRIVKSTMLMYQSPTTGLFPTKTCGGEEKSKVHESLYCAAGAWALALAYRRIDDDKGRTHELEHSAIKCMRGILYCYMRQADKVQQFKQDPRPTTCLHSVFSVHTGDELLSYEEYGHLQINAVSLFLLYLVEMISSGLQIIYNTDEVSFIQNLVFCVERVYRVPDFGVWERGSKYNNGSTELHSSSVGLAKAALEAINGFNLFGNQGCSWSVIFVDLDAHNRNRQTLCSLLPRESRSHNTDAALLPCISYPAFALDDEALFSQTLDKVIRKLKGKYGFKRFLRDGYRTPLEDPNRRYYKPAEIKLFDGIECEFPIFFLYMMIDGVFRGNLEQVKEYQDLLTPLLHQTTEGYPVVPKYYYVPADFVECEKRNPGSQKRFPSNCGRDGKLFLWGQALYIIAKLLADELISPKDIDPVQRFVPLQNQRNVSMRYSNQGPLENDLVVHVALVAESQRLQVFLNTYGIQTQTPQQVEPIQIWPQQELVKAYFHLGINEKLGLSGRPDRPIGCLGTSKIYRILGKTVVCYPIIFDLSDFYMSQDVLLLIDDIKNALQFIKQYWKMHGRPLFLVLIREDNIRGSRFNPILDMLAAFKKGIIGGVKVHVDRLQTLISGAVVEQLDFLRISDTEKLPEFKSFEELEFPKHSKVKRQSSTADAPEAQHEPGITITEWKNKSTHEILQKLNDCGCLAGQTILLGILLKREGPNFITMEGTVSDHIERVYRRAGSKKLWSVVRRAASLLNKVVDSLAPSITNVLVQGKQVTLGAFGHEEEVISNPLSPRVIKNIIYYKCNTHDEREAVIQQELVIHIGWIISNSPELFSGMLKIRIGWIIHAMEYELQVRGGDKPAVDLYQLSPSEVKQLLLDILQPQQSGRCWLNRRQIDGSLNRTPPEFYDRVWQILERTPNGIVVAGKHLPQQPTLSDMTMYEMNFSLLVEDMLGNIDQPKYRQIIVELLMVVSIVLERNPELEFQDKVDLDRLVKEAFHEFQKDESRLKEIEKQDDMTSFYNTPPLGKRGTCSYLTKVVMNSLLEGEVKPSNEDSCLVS

[24] = molecular target: Carnitine O-palmitoyltransferase 1, muscle isoform (Mus musculus) (UniProt Q924X2); assay: anti-HA co-IP from muscle, MS; CTRL 4
Sequence of Carnitine O-palmitoyltransferase 1, muscle isoform (Mus musculus) (Q924X2 whole entry, canonical isoform): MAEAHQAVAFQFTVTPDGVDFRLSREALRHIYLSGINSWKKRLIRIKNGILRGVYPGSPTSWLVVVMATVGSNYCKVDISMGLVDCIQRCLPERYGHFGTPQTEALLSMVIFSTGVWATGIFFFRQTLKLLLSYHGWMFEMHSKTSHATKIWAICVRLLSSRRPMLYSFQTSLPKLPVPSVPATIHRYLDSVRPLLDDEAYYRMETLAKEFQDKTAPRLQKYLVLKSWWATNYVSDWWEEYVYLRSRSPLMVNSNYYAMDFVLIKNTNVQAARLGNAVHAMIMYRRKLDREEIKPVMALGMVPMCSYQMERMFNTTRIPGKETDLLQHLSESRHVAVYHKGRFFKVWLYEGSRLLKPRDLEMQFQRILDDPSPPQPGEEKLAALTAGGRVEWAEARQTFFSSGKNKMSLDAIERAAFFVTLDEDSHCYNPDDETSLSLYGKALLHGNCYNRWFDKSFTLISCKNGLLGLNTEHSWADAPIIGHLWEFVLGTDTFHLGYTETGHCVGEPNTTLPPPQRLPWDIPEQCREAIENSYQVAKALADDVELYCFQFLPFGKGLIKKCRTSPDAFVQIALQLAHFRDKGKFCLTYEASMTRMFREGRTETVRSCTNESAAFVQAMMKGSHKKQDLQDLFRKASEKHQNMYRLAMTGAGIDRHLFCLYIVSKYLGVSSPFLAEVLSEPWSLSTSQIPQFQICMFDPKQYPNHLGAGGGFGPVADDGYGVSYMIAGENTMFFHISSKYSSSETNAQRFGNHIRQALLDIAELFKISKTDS

[25] = molecular target: Trifunctional enzyme subunit beta, mitochondrial (Mus musculus) (UniProt Q99JY0); assay: anti-HA co-IP from muscle, MS; CTRL 4
Sequence of Trifunctional enzyme subunit beta, mitochondrial (Mus musculus) (Q99JY0 35-475 limits assumed): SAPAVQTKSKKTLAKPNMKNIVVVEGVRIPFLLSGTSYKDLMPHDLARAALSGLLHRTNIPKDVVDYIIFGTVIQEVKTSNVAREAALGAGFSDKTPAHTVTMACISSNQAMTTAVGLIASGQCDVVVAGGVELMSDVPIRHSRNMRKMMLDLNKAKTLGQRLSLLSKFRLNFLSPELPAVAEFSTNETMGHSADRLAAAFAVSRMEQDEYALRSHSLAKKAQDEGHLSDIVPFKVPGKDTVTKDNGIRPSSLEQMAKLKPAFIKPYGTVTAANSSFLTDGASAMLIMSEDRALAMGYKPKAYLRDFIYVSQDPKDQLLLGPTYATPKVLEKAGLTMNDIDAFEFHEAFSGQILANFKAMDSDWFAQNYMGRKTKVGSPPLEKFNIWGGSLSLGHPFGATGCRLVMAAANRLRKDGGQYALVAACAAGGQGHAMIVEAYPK

[26] = molecular target: MICOS complex subunit Mic60 (Mus musculus) (UniProt Q8CAQ8); assay: anti-HA co-IP from muscle, MS; CTRL 4

Sequence of Transcription elongation factor A protein 3 (Mus musculus) (P23881 whole entry): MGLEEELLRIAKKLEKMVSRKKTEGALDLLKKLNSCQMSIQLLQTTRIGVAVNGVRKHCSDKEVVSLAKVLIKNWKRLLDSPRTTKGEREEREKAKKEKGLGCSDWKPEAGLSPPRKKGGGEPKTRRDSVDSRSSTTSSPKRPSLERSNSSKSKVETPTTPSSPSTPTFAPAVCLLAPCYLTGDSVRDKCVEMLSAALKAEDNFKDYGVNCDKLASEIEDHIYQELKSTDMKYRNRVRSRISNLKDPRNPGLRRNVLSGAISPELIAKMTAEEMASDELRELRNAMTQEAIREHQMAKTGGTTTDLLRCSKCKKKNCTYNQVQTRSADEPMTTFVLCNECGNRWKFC

human BVES fused with 3xHA tag (from UniProt Q8NE79 1-360)
AAV9-BVES-HA (IP-MS count) [1]: 12
AAV9-BVES-HA (IP-MS count) [2]: 12
AAV9-BVES-HA (IP-MS count) [3]: 11
AAV9-BVES-HA (IP-MS count) (Nidogen-2 (Mus musculus)): 12
AAV9-BVES-HA (IP-MS count) [4]: 9
AAV9-BVES-HA (IP-MS count) [5]: 9
AAV9-BVES-HA (IP-MS count) [6]: 77
AAV9-BVES-HA (IP-MS count) [7]: 41
AAV9-BVES-HA (IP-MS count) [8]: 5
AAV9-BVES-HA (IP-MS count) [9]: 2
AAV9-BVES-HA (IP-MS count) [10]: 3
AAV9-BVES-HA (IP-MS count) [11]: 2
AAV9-BVES-HA (IP-MS count) [12]: 2
AAV9-BVES-HA (IP-MS count) [13]: 2
AAV9-BVES-HA (IP-MS count) [14]: 2
AAV9-BVES-HA (IP-MS count) [15]: 2
AAV9-BVES-HA (IP-MS count) [16]: 13
AAV9-BVES-HA (IP-MS count) [17]: 3
AAV9-BVES-HA (IP-MS count) [18]: 7
AAV9-BVES-HA (IP-MS count) [19]: 4
AAV9-BVES-HA (IP-MS count) [20]: 2
AAV9-BVES-HA (IP-MS count) [21]: 9
AAV9-BVES-HA (IP-MS count) [22]: 2
AAV9-BVES-HA (IP-MS count) [23]: 18
AAV9-BVES-HA (IP-MS count) [24]: 24
AAV9-BVES-HA (IP-MS count) [25]: 13
AAV9-BVES-HA (IP-MS count) [26]: 15
